According to patent publication US20260022175A1:

Assays:
Assay in all cases: SPR Biacore 8k+ 25C, antibody captured, FcγR analyte; mean
[1] = molecular target: human FcγRIIa(H) extracellular domain with C-terminal His tag (human) (UniProt P12318)
[2] = molecular target: human FcγRIIIa(V) extracellular domain with C-terminal His tag (human) (UniProt P08637)
[3] = molecular target: human FcγRIIa(R) extracellular domain with C-terminal His tag (human) (UniProt P12318)
[4] = molecular target: human FcγRIIIa(F) extracellular domain with C-terminal His tag (human) (UniProt P08637)
Sequence of human FcγRIIIa(F) extracellular domain with C-terminal His tag (human) (P08637 other isoform, or with tags, fused parts or gaps): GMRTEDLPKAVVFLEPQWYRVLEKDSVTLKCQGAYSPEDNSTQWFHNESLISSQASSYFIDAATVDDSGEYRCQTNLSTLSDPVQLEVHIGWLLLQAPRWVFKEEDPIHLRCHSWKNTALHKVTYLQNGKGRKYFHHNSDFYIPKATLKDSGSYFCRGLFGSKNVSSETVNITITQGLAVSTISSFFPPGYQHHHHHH

[5] = molecular target: cynomolgus monkey FcγRIIb extracellular domain with His tag (cynomolgus monkey)
Sequence of cynomolgus monkey FcγRIIb extracellular domain with His tag (cynomolgus monkey) (chain, as listed by the source): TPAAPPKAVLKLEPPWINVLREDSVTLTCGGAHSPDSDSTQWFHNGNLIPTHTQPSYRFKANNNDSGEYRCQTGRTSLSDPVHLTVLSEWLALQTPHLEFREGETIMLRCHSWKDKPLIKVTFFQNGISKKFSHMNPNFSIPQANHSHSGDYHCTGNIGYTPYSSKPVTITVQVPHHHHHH

[6] = molecular target: cynomolgus monkey FcγRIIIa(S) extracellular domain with His tag (cynomolgus monkey) (UniProt Q8SPW2)
Sequence of cynomolgus monkey FcγRIIIa(S) extracellular domain with His tag (cynomolgus monkey) (Q8SPW2 other isoform, or with tags, fused parts or gaps): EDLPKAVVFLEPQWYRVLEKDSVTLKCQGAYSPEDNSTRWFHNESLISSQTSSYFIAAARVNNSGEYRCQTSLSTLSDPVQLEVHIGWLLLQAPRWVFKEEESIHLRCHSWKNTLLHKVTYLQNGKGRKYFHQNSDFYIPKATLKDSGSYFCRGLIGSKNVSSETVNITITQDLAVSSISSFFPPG

[7] = molecular target: cynomolgus monkey FcγRIIa2 extracellular domain with His tag (cynomolgus monkey)
Sequence of cynomolgus monkey FcγRIIa2 extracellular domain with His tag (cynomolgus monkey) (chain, as listed by the source): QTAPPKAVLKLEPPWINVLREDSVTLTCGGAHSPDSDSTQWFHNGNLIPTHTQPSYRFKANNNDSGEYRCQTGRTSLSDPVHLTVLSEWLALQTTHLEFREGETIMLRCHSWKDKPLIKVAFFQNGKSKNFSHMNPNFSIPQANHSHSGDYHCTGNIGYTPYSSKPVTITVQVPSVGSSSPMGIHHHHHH

[8] = molecular target: cynomolgus monkey FcγRIIa3 extracellular domain with His tag (cynomolgus monkey)
Sequence of cynomolgus monkey FcγRIIa3 extracellular domain with His tag (cynomolgus monkey) (chain, as listed by the source): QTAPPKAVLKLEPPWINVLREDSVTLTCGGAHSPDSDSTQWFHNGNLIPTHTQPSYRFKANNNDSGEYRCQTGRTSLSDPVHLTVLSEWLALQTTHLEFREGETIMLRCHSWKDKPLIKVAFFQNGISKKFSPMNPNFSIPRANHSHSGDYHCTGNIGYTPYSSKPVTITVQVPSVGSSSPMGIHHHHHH

[9] = molecular target: human FcγRIIb extracellular domain with C-terminal His tag (human) (UniProt P31994)
Sequence of human FcγRIIb extracellular domain with C-terminal His tag (human) (P31994 other isoform, or with tags, fused parts or gaps): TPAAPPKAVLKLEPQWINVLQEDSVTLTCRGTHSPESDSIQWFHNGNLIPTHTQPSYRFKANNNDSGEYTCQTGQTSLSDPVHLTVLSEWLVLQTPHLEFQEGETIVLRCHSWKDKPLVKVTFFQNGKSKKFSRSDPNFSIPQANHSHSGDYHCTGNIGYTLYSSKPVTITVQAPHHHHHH

[10] = molecular target: cynomolgus monkey FcγRIIIa(R) extracellular domain with His tag (cynomolgus monkey) (UniProt Q8SPW2)
Sequence of cynomolgus monkey FcγRIIIa(R) extracellular domain with His tag (cynomolgus monkey) (Q8SPW2 other isoform, or with tags, fused parts or gaps): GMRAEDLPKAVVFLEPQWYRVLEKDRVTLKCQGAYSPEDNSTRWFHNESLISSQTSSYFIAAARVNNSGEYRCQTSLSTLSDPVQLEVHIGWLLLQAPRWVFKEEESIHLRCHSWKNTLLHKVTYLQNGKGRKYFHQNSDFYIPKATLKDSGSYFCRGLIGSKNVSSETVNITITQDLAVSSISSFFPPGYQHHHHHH

[11] = molecular target: cynomolgus monkey FcγRIIa1 extracellular domain with His tag (cynomolgus monkey)
Sequence of cynomolgus monkey FcγRIIa1 extracellular domain with His tag (cynomolgus monkey) (chain, as listed by the source): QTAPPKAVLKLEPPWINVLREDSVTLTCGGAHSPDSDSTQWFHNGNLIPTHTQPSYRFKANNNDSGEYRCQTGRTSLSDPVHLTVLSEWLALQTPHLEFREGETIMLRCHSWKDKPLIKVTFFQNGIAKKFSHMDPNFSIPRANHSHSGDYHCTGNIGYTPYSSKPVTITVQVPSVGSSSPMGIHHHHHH

[12] = molecular target: human FcγRIa extracellular domain with C-terminal His tag (human) (UniProt P12314)
Sequence of human FcγRIa extracellular domain with C-terminal His tag (human) (P12314 other isoform, or with tags, fused parts or gaps): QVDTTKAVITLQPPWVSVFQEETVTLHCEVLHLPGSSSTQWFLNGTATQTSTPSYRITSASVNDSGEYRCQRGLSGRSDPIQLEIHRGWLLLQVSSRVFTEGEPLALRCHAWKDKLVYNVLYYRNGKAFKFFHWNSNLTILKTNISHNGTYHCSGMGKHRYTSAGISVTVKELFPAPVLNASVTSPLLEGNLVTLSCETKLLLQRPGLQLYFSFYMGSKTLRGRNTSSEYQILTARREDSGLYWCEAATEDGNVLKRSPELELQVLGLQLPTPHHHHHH

[13] = molecular target: cynomolgus monkey FcγRIa extracellular domain with His tag (cynomolgus monkey)
Sequence of cynomolgus monkey FcγRIa extracellular domain with His tag (cynomolgus monkey) (P12314 other isoform, or with tags, fused parts or gaps): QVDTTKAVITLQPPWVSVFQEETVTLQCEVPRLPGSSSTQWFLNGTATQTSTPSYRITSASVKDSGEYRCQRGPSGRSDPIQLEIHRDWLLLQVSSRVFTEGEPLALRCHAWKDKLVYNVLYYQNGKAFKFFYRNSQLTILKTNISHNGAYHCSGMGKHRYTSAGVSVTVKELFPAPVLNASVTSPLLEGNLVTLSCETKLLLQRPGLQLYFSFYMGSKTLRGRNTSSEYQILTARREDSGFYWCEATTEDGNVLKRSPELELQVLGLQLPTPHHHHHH

Sequence of human FcγRIIIa(V) extracellular domain with C-terminal His tag (human) (P08637 other isoform, or with tags, fused parts or gaps): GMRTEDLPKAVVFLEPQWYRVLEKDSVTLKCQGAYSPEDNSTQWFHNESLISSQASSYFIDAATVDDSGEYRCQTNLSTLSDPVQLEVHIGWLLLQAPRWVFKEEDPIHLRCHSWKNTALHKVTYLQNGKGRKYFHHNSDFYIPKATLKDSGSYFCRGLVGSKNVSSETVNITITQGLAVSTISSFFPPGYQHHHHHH
Sequence of human FcγRIIa(H) extracellular domain with C-terminal His tag (human) (P12318 34-217): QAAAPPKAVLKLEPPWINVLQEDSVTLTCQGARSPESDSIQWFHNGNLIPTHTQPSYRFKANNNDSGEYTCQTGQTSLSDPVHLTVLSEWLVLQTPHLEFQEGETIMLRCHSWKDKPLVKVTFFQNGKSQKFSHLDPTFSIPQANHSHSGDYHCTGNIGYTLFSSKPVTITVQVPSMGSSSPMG
Sequence of human FcγRIIa(R) extracellular domain with C-terminal His tag (human) (P12318 34-217 H167R): as the sequence (P12318 34-217) above, with H134R counted along it

A Kd [1] of 1250 nM, a Kd [2] of 1020 nM and a Kd [3] of 1880 nM were found for “Tremfya (Janssen Pharmaceutical K.K) (antibody)” in this work. The Kd [4] was 9090 nM, the Kd [5] was 5670 nM and the Kd [6] was 497 nM. It also gave a Kd [7] of 7530 nM, a Kd [8] of 39800 nM and a Kd [9] of 16500 nM. It also gave a Kd [10] of 579 nM, a Kd [11] of 6800 nM and a Kd [12] of 0.0908 nM. The Kd [13] was 0.0109 nM.
